For one assay, the target named is T1, mouse Tie1 (Mus musculus, UniProt Q06806).
T1 construct: host or cells: mouse endothelial cell lines MS1, Le-2, Bend3, SVEC
The assay can be described thus: Flow cytometry binding to mouse endothelial cell lines. The conditions noted are these: MS1, Le-2, Bend3, SVEC and Tie-1 transfected Le-2 cells; biotinylated antibody. The method, then: Specific binding of the Tie-1 antibodies and of control Mabs to mouse endothelial cells was measured by flow cytometry analysis (FACSscan, Becton Dickinson, Oxnard, Epics, Coulter). Mouse endothelial cell lines MS1, Le-2, Bend3, SVEC (ATCC, Rockville) and Tie-1 transfected Le-2 cells were stained. Cell staining was modified from existing protocols. About 200,000 cells were used in each experiment: after trypsinization, cells were washed one time in PBS and resuspended PBS, 10% Heat inactivated human serum (incubation buffer). To test specificity, antibodies were incubated at different dilutions for 1 h at room temperature. Cells were spun down by centrifugation for 3 min at 611 g. Between incubations cells were washed twice with PBS. […] After the final incubation step bound antibodies were detected by means of flow cytometry on a FACSCan and Epics Altra (Becton Dickinson, Oxnard, Coulter) and results analyzed.
Intracellular Tie-1 was measured as described above, except for the addition of Saponin to the incubation buffer to a final concentration of 0.1% during incubations. […] The binding pattern in mouse cell lines detected by flow cytometry is different from the binding pattern in HUVEC in that in mouse cells there is a greater cell surface staining than that compared to primary human endothelial cell lines.

The target of assay [1] is T2, Tie1-EpoR chimeric receptor (UniProt P14753+P35590).
T2 construct: the PCR amplified extracellular part of human Tie1 (bp 37-2316 of X60975); expressed in transfected cells
T2 sequence (P35590+P14753 with tags, fused parts or gaps): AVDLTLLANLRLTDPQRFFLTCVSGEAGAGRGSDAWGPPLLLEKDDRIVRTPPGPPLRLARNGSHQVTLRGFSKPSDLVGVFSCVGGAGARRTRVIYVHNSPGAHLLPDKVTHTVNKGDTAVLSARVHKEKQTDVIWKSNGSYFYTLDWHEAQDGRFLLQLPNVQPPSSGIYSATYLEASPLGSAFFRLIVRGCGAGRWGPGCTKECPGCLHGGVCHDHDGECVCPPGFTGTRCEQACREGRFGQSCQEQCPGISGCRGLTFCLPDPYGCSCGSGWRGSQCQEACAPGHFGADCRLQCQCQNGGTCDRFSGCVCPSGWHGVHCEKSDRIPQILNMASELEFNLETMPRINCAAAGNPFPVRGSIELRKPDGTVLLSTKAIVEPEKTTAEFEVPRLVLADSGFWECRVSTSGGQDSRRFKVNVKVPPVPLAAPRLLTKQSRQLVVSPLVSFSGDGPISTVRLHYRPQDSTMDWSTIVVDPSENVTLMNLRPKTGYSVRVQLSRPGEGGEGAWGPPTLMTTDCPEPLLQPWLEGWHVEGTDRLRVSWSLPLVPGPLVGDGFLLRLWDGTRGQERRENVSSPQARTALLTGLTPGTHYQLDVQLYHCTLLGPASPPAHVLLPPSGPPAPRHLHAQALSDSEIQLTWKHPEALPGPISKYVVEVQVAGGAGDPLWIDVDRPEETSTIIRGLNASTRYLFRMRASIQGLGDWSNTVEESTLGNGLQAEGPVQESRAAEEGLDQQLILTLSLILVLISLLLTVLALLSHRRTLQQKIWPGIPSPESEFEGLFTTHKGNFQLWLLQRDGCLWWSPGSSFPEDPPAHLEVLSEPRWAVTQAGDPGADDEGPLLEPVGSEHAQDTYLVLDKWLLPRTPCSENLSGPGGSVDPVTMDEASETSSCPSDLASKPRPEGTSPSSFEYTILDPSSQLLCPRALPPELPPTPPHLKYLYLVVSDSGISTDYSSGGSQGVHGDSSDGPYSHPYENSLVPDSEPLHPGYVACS
The assay can be described thus: Ba/F3 bioassay (Tie1/EpoR chimeric BaF3 cell assay), MTT viability. The format is cell-based, human. Conditions: for survival/viability of Tie1-EpoR Ba/F3 cells: antibody alone, no IL-3. In a few lines: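 Ba/F3 cells expressing human Tie1 extracellular domain fused to mouse EpoR transmembrane/cytoplasmic domains, seeded at 50 000 cells/well with anti-Tie1 antibodies for 48 h. Non-expressing Zeocin-resistant pools served as controls. Survival read by MTT (0.5 mg/ml, 2 h), SDS/HCl lysis overnight at 37 °C, absorbance at 540 nm.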

T1 sequence (Q06806 23-1134): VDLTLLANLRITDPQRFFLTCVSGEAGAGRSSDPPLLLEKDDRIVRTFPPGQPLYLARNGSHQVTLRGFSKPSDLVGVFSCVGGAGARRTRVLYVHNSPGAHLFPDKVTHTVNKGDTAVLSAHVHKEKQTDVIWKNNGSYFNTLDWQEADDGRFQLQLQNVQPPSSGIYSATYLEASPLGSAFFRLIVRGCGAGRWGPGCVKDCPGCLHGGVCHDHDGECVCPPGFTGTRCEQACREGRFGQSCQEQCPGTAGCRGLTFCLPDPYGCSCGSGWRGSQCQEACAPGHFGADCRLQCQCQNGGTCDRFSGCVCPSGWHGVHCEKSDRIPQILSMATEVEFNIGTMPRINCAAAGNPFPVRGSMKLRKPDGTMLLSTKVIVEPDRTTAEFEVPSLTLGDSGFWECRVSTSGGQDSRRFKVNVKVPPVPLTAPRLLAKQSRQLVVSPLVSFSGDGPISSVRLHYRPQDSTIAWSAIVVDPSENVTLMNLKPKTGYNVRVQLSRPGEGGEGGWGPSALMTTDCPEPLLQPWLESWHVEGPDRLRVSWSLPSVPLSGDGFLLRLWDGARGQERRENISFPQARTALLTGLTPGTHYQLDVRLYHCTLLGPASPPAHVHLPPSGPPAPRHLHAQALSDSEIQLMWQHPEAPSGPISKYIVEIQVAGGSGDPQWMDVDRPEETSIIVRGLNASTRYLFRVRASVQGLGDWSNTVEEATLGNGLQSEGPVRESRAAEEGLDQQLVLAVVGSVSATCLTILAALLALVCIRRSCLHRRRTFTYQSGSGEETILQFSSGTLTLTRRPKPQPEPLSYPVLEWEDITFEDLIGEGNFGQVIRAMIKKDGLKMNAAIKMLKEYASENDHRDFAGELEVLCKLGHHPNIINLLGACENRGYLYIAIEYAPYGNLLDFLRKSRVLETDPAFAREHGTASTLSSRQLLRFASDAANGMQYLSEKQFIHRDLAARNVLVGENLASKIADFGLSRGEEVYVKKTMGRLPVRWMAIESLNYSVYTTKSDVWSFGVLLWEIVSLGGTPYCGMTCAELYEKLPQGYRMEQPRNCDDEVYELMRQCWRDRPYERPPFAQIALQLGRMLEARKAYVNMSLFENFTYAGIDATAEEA

B1: E3: human anti-Tie1 antibody from Fab phage library; HC SEQ ID NO:114, LC SEQ ID NO:116 (antibody, V domains shown)
VH: EVQLLESGGGLVQPGGSLRLSCAASGFTFSMYGMVWVRQAPGKGLEWVSVISPSGGNTGYADSVKGRFTISRDNSKNTLYLQVNSLRAEDTAVYYCARAPRGYSYGYYYWGQGTLVTVSSASTKGPSVFPLAPSSKSTSGG
VL: DIQMTQSPLSLSASVGDRVTITCRASQGIGHYLAWYQQKPGKVPKLLIYTASTLQSGVPSRFSGSGSGTDFTLTINSLQPEDVATYYCQQFNSYPHTFGQGTRLDIK
modifications: Synthetically generated peptide
For the molecule B1, the “binding to mouse endothelial cell lines” value with mouse Tie1 is given as “binds to mouse endothelial cell lines”. In addition, the “concentration giving almost maximal viability in Tie1-EpoR cell survival assays” value in assay [1] (Tie1-EpoR Ba/F3 cells) came out at 50 ng/mL. For the same molecule, the “Average MTT activity in BaF3 cell assay” value in assay [1] (Tie1-EpoR Ba/F3 cells, 48 h, absorbance 540 nm, E3 IgG 100 ng/ml together with 100 or 500 ng/ml of the other antibody) came out at 0.61. Also, the “survival/viability of Tie1-EpoR Ba/F3 cells” value in assay [1] is “functions as a Tie1 activating antibody”; in assay [1] (listed as E3 IgG), “able to promote survival”. For the same molecule, the “viability of EpoR Ba/F3 cells used as a control” value in assay [1] (control cells not expressing Tie1-EpoR) is “not affected”.

For the origin of these results see patent publication US7871610B2, “Antibodies to Tie1 ectodomain” (Dyax Corp., priority 2003, dated 2011).
